From US6586222

Key:
[1] = system: recombinant human proPR-3 secreted from Sf9 insect cells
[2] = molecular target: recombinant human proPR-3 secreted from Sf9 insect cells (human) (UniProt P24158); test: cell-based or functional assay
Chain of recombinant human proPR-3 secreted from Sf9 insect cells (human) (P24158 26-256 V119I): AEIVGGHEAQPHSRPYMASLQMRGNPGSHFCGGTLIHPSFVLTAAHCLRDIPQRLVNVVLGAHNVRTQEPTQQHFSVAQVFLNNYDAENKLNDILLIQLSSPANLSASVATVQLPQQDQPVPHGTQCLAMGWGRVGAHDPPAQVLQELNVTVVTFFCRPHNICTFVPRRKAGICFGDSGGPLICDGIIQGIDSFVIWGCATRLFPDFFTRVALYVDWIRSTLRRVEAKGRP

Chain of recombinant human proPR-3 secreted from Sf9 insect cells (chain, as listed by the source): as the sequence (P24158 26-256 V119I) above

N-terminal sequence of PR-3 after preparative DPPI activation [2] [%]	Substance	activation of proPR-3 (PR-3 activity on Boc-Ala-ONp after DPPI treatment) [1]
–	bovine dipeptidyl peptidase I (Boehringer Mannheim)	1.25% (wt/wt) was determined the minimum amount of DPPI required to obtain complete activation of PR-3 in 3 hr. at 37 °C
> 85	bovine dipeptidyl peptidase I (Boehringer Mannheim) (from UniProt Q3ZCJ8 25-463) (enzyme)	–
